Laboratory results from patent US20060121489 (Board of Regents, The University of Texas System, published 2006).

Experiments:
Settings in all cases: chain copies: 2 (homodimer, stated)
[1] = molecular target: T1, NF-kB p50 homodimer (UniProt P19838 P19838:1-433); assay: EMSA; stated as sub-nM
[2] = molecular target: T2, NF-kB p65 (RelA) homodimer (UniProt Q04206 Q04206:1-551); assay: EMSA; p65 homodimer
[3] = molecular target: T2, NF-kB p65 (RelA) homodimer; assay: competition; inhibits p65/p65 and p50/p50 equally; nonspecific stickiness
[4] = molecular target: T1, NF-kB p50 homodimer; assay: as above

T1 sequence (P19838 1-433, one chain of several): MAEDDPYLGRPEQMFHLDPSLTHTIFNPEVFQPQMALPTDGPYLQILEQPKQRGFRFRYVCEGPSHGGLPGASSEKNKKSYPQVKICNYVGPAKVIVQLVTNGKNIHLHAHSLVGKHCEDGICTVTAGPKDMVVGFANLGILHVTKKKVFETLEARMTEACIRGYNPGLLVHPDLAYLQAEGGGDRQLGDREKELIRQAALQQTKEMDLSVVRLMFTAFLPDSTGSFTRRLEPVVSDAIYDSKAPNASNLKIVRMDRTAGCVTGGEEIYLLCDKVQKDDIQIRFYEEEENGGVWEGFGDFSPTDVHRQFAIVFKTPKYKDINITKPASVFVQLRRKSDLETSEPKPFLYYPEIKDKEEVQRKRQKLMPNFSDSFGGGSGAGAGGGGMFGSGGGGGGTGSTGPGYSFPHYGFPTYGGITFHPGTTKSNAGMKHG
T2 sequence (Q04206 whole entry, one chain of several): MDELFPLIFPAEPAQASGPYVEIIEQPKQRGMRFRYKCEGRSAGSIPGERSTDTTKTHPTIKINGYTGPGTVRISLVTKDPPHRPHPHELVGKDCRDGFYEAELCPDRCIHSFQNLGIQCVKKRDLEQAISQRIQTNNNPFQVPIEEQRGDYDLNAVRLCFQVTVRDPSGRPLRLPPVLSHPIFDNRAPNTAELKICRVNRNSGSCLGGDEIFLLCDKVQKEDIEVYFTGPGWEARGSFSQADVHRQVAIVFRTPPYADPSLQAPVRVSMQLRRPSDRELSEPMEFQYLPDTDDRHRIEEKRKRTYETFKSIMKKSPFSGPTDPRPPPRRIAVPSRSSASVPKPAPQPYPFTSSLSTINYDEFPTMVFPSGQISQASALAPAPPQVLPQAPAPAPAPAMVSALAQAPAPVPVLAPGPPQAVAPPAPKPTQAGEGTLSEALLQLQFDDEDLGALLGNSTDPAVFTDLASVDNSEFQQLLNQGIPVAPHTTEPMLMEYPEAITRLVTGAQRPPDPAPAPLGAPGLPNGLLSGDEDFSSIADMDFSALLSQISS

Binder	Kd [1] [nM]	Kd [2] [nM]	binding result [3]	binding result [4]
XBY-6 (dsDNA, 6 phosphorodithioate (S2) linkages: 5'-…2TS2CCAC-3' / 3'-GGS2TCCS2TCS2TAAGGS2TG-5') DNA 1: CCAGGAGATTCCAC DNA 2: GTGGAATCTCCTGG	< 1	1.4	–	–
CK-1 42-mer full phosphorothioate (dsDNA, full PS) DNA 1: CCAGGAGATTCCACCCAGGAGATTCCACCCAGGAGATTCCAC DNA 2: GTGGAATCTCCTGGGTGGAATCTCCTGGGTGGAATCTCCTGG	–	–	binds	binds
